According to the nanobody polyreactivity screen of Harvey et al. (2022):

Experiment: yeast display, Sf9 membrane polyspecificity reagent, FACS + sequencing; frameworks hold sequencing errors
Method in brief: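 In a synthetic yeast display library (Saccharomyces cerevisiae BJ5465), nanobody expression was induced with galactose for 36–48 hours. FACS gates were set low and high (top ~1%) using anti-HA fluorescence for expression and streptavidin fluorescence for binding of the Sf9 membrane reagent. Each polyreactivity label is drawn from the gate of origin.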

Row | Sequence | polyreactivity (PSR sort gate)
1 | QVQLVESGGGLVQAGGSLRLSCAASGNIFLYYAMGWYRQAPGKEMELVAAISWSGSSTYYADSVKGRFTISRDNAKNTVYLQMNSLKPEDTAVYYCNKRATRSRRRGYWGQGTQVTVSS | low polyreactivity
2 | QVQLEESGGGLVQAGGSLRLICAATGSIFSFYAMGWYRQAPGKEREWVAAIDVSGGSTYYADSVKGRFTISRDNAKNTVYLQMNSLKPEDTAVYYCAKDVRDQYDYWGQGTQVTVSS | low polyreactivity
3 | QVQLVESGGGLVQAGGSLRLSCAASGSTFTYYAMGWYRQARGKERELVAAISSGGSTYYADSVKGRFTISRDNAKNTDYLQMNSLKPEDTAVYYCAARGYYGKFSGTGYWGQGTQVTVSS | high polyreactivity
4 | QVQLVESGGGLVQAGGSLRLSCAASGGIFSYNALGWYRQAPGKERELVAAISYSSTRTYYADSVKGRFTISRDNAKKTVYLQMNSLKREDTAVYYCAARLSRTRHTSDYWGQGTQVTVSS | high polyreactivity
5 | QDQLVESGGGLVQAVGSLRLSCAASGRIFVYNAMGGYRQAPGKEREFVATITSSGGRTYYADSVKGRFTISRDNSKNTVYLQMNSLKPEDTAVYYCAARPQNNGRNPVYRYNYWGQGTQVTVSS | high polyreactivity
6 | QVQLVESRGGLVQAGGSLRLSCAASGSIFRSNGMGWYRQPPGTERELVAAIRTSGGSTNYADSVKGRFTISRDNAKNTVSLQMNSLKPEDTAVYYCNTRDRGLGMMEYWGQGTQVTVSS | low polyreactivity
7 | QVQLVESGGGLVQAGGSLRLSCAASGSIFVYNAMGWYRQAPGKEMELVAAISTSGGRTYYADSVKGRFTISRDNAKNTVYLQMNSLKTEDTAVYYCNALGYWRRVVDGFDYWGQGTQVTVSS | high polyreactivity
8 | QVQLVESGGGLVQAGGSLRLSFAASGSTFVIYAMGWYRQAPGTERELVAAISGRTGSTYYADSVKGRFTISRDNAKNTVYLQMNSLKPEDTAVYYCAAYKRSGLKYGHWGQGTQVTVSS | high polyreactivity
9 | QVQLVESGGGLVPAGGSLRLSCAASGSIFLAYAMGWYRQAPGKERELVAAITSIDGITSYADSVKGRFTISRDNAKNTVYLQMNSLTPEDTAVSYCAAPDGHWIRQWDTFEYWGQGTQVTVSS | low polyreactivity
10 | QVQLGESGGGLVQAGGSLRLSCAASGNIFRYYAMGWYRQAPGKERELVAAITWSGGSTYYADSVKGRFTISRDNAKNTVYLQMNSLKQEDTAVYYCNTYRVPYRTVQDDYWGQGTQVTLSS | high polyreactivity
11 | QVQLVESGGGLVQAGGSLRLSCAASGITFSYNAMGWYRPAPGKERELVAAIRVGDGSTYYADSVKGRFTISRDNAKNTVYLQMNSLNPEDTAVYYCNARYLRLRYPYTDEYNYWGQGTQVTVSS | low polyreactivity
12 | QFQLVESGGGLVQAGGSLRLICAASGITFYPNDMGWYRQSPGKERELVAAITTNDGDTYYADSVKGRFTISRDNAKNTVYLQMNSLKPEDTAVYYCAADSGSTSEYEYWGKGTQVTVSS | low polyreactivity
13 | QVQLVESGGGLVQAGGSLRLSCAASGRTFVEYAMGWYRQAPGKERELVAAITYSGDDTYYADSVKGRFTISRDNAKNTVYLQMNSLKPEDTAVYYCAKKRSKPISFDYWGQGTQVTVSS | high polyreactivity
14 | QVQLVESGGGLVQAGGSLRLSCAASGFIIRGNVMGWSRQAPGKERELVAAISGRGGSTYYADSVKGRFTISRDNAKNTVYLQRNILKPEDTGVYYCNAAGLYNSRLDYWGQGTQVTVSS | high polyreactivity
15 | QVQLVESGGGLVQAGGSLRLSCAASGIIFPFYAMGWYRQEPGKERELVAAITSGDDTYYADSVKGRFTISRDNAKNTVYLQMNSLKPEDTAVYYCAADSPYVVAWPYVWYFTFDYCGQGTQVTVSS | low polyreactivity
16 | QVQLVESGGGLVQAGGSLRLSCAASGSTLPYYAMGWYRQAPGKERELVADITARGGTYYADSVKGRFTISRDNAKNTVYLQMNSLKPEDTAVYYCAAEDYWSPGYDYWGQGTQVTVSS | high polyreactivity
17 | QVQQQESGGGLVQAGGSLRLSCAASGSISRLDYMGWYRQATGKERELVAAIDNGSTTYYADSVKGRLTISRDNAKYTVYLQMNSLKPEDNAVYFCAAVRGRGGTHAYWGQGTQVTVSG | low polyreactivity

Row | Sequence | polyreactivity (PSR sort gate)
18 | QVQLVESGGGLVQAGGSLRLSCAASGYIFNYNAMGWYRQAPGKERELVAVIRVSVGSTYYADSVKGRFTISRDNAKNTVYLQMNSLKPEDTAVYYCAADRGARGDYWGQGTQVTVSS | high polyreactivity
19 | QVQLVESGGGLVQAGGSLRLSSAASGSTFVYNYMGWYRQAPGKERELVAAIDSGGSTYYADSVKGRFTISRDNAKNTVYLQMNSLKPEDTAVYYCAASSDSYFGYHYYYWGQGTQVTVSS | low polyreactivity
20 | QVQLVESGGGLVQAGCSLRLSCAAYGSIFSYNAMGWYRQAPGKERELVASISWSGGRTFYADSVKGRFTISRDNAKNTVYLQMNSLKPEDTAVYYCAFRHYSTYYSRFGYWGQGTKVTVSS | high polyreactivity
21 | QVQLVDSGGGLVQAGGSLRLSCAASGSIFVKYAMGWYRQAPGKERELVAAISWRGGSTYYADSVKGRFTISRDNAKNTVYLQMNSLKPEDTAVYYCAKYPGISGYNYWGQGTQVTVSS | high polyreactivity
22 | QVQLVESGGGLVQAGGSLRLSCAASGRNFPGYARGWYRQAPGKEGELVAGINWSSGSTYYADSVKGRFTISRDNAKNTVYLQMNSLKPEDTAVYYCNALGYWRSTVHYVVGEVDYWGQGTQVTVSS | low polyreactivity
23 | QVQLVESGGGLVQAGGSLRLSCAASGYTFRYYGMGWYRQAPGNERELVADINSNGVRTYYADSVKGRFTISRDNAKNTVYVQMNSLKPEDTAVYYCNKDWGRYRYDYWGQGTQVTVSS | high polyreactivity
24 | QVQLVESGGGLVQAGGSLRLSCAASGRTFFKYAMGWYRQAPGKERELVAAITGRGGSTYADSVKGRFTISRDNAKNTVYLQMNSLKPEDTAVYYCAKVYQRGAQYYYYKYDYWGQGTQVTVSS | high polyreactivity
25 | QVQLVESGGGLVQAGGSLRLSCAASGFIFYRYAMGWYRQAPGKESELVAAISRSGGSKYYADSVKGRFTISRDLANNTVYLQLNSLKPEDTAVYYCATPVHRKLYLVNYWGQGTQVTVSS | low polyreactivity
26 | QVQLVESGGGLVQAGGSLRLSCAASGFTFLYNAMGWYRQAPGKERELVASINSGGSTNYADSVKGRFTISRDKSKNTVYLQMNRLKPEDTAVYYCNAKRHVRKGDYGGQGTQVTVSS | low polyreactivity
27 | QVQLVESGGGLVQAGGSLRLSCAASGSTFQFNAMGWYRPAPGKEREFVAAITSSAGRTYYADSVKGRFTISRDNAKKTVYLQMNSLKPEDTAVYYCATGPYSPPSAGPEYDYWGQGTQVTVSS | high polyreactivity
28 | QVQLVESGGGLVQAGGSLRLSCAASGRIFQYYAMGWYRQAPGKERELVAAISSRGGSTTYADSVKGRFTISRDNAKNTVYLQMNSLKPEDTAVYYCARDWYYYPQYRQRYYYWGQGTQVTVSS | high polyreactivity
29 | QVQLEESGGGLVQAGGSLRLSCAASGFIFVRNAMGWYRQAPGKERELVAAITRSGGSTSYADSVKGRFTISRDNAKNTVYLQMNSLKPEDTAVYYCAPQYGYWGQGTQVTVSS | high polyreactivity
30 | QVQLVESGGGLVQAGGSLRLSCAASGFISAGYAMGWYRQAPGKERELVAAISRRGGRTYYADSVKGRFTISRDNAKNTVYLQLNSLKPEDTAVYYCAAGSPHSAFAGPYDYWGQGTQVTVSS | high polyreactivity
31 | QVQLVESGGGLVQAGGSLRLSCAASGFTFRRYAMGWYRQAPGKERELVAAITRGGSTYYADSVKGRFTISRDNAKNTVYLQMNSLKPEDTAVYYCAARGGTRYSTRSYGYWGQGTQVTVSS | high polyreactivity
32 | QVQLEESGGGLVQAGGSLRLSCAASGSIFRNNSMGWYRKAPGKERVLVAVISRRSGNTYYADSVKGRLTISRDNAKNTVYLQMNSLKAEDTAVYYCAADYSKSSIRGEYWGQGTQVTVSS | low polyreactivity
33 | QVQLVESGGGLVQAGGSLRLSCAASGRIFDLNAMGWYRQAPGKERELVAVISWSGGIKYYADSVKGRFTISRDNAKNTVYLQMNSLKPEDTAVYYCNADTVFDPYYEFDYWGLGTQVTVSS | low polyreactivity
